Test system: Saccharomyces cerevisiae
Experiment: transcriptional activation domain activity (GFP:mCherry ratio, weighted mean of sorted bins, harmonized to initial dataset scale) (arbitrary fluorescence ratio units); higher = stronger transcriptional activation
Conditions: beta-estradiol 1 µM; induction time 4 h
Experimental: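 53-aa protein tiles (fungal proteins plus yeast TF control tiles) fused C-terminally to a DBD-estrogen-binding domain-mCherry synthetic TF, integrated in S. cerevisiae (URA3 locus) with a GFP reporter. Cells were induced with 1 uM beta-estradiol for 4 h at 30 C, FACS-sorted into 8 bins by GFP:mCherry ratio and barcodes sequenced. Activity is the read-weighted mean bin fluorescence (GFP:mCherry), averaged over barcodes (median 12); tiles under 50 reads were discarded. New active-learning values were harmonized by linear fit onto the scale of the initial (Hummel et al.) dataset. The assay saturates at low and high signal.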

Row | Sequence | transcriptional activation domain activity
1 | DLQTYVLCLLLLYIARDFVDCLWNLFSTIAILCLVTWVTPMFLIAVFPIGLVY | 53700
2 | DLSKATKEVKEGGERKAAKGERETEQEKVEEGVKKLAVVDKKGGKNKTETNGS | 17700
3 | DLVFGIIIVRSLLIPVVLVFFFTFACFHIYLSHTSFFPAFYSSILGFHPLAFS | 73300
4 | DLYNHSYRLHRRKRPGMKEVYLSAMGFRMMGVKGFREWSFLWRVRLAAAPWWA | 52600
5 | DMDEEEGGAPAKPVGACARCKNLKVKCEFKTETDPCKRCFNGRHDCVTPGRKK | 28500
6 | DMKDRGLFQCNPYRYAKECCRFVGLFYTAIWLVLRGTHIGHYVISATCLAVLW | 68200
7 | DMLISFGLDHPSNREDDLDKLCNMTRDVQAIFSQYLKGEESKRSLEDFLSTSN | 67500
8 | DNAHVLQEYLAVFRHLLSYHDPKLSSHMETIGFMPDLYAIPWFLTLFTHVFPL | 58600
9 | DNAQANAGGARGRRDDGAGTSKEDGEEEGAYEGDSEEDKKKRRKGRSKRRGGD | 48100
10 | DNDDDGETAAGGRLAHLLQILVCNAIYSFEPLLNCSQDVNNVLVVVTRYYGGI | 57500
11 | DNDYNLDDTNNDNTNSMQSILEDFVSSEEALKFMPDAGRDARRYSEVVTSSFP | 89300
12 | DNESDAEPQQEKSKSQSRRRQSRGRGRRGADSGAESDARSDVSQSGGRRNRQR | 44200
13 | DNLDLASLDPLEQSPSISMEPVSINETGSAYTTTNTALNDIDIPFSINELNEL | 64900
14 | DNLLGMDYYNIDDLLTQELRDLDIPLVPSPKTGDGSSDKKNIDRTWNLGDENN | 79900
15 | DNMDSDFLSRTPNYNAFSLEATSHNPADNANELGSQSNRETNSPSVFYPQANT | 22500
16 | DNMHVPGRFKDPNFLFYIQTMISSYALPFVRKAAILMHVRYGVELPSIPFECV | 75400
17 | DNMSLLNLPILEETVSSGQDDKVEPDEEDIWNYLPSSSSQQEDSSRALKKNTN | 20900
18 | DNPEQLMKVFLSRNLISTGVIYSEHKCNMMVRLVWLFLCFLHRKSVLPEIRGL | 59500
19 | DNPSFLPLDIEQSSYDLSEDAMSYPIISTQSNRDCTQYDNTKISQILQSQLNP | 63900
20 | DNTPVLQEYLAVFRHLLSFHDPELSSHLDTIGFMPDLYAIPWFLTLFTHVFPL | 64500
21 | DNYILNNENDDGLDNLLGMDYYNIDDLLTQELRDLDIPLVPSPKTGDGSSDKK | 109000
22 | DPDASSFSGTVLDKAGSIARLSEDEQGGERAAKRRRLNKKVGMEAIAGLVGEY | 40800
23 | DPEEVQGGKQRAEGNQGGGGRQGRRGPRGAEGQDHPGVQRPHRRPRRGHQAHL | 33200
24 | DPFVEQNNDITTALLNNELFQGPSLSDEVTDWFGASEDIGLEFVEPWTELIEQ | 144000

Row | Sequence | transcriptional activation domain activity
25 | DPIRYLSTMDLGYCVGDKIIGSVLCYKQPIVLLILMYFTDQILFFLDTYLWYI | 40600
26 | DPNSPLDGDVDELRSREIAAKAVTGTLILLLKWLKLSHVLKFEYVTQLLLDLN | 57100
27 | DPPKRGRGRPKGSKNKKSTGVAAAAPAPAAGPSTGEKRKRGRPPKPKPEGEAG | 43800
28 | DPPPHPSCPPGSLIIKMVVYLRRRRLLVTWCEDPSVPEVRCLVVATQSQWVPM | 55300
29 | DPQTLSVAHRSYLRCLTQRLLLTQPTFTECMYNLLIHTDHLVALIHRLDGVWS | 38400
30 | DPTKSVSAYWVPGGDYISPALQILMNEYLLSFCPTITLPQSLILVSKYFGFLL | 60700
31 | DPTSRAPTAVRVRVKHSSGEEQEEEERLPADGVVICAGPWTGRVARRLLGEKV | 37200
32 | DPYDWSTYSNLIDEERIFVPEVQSSDHINDKFLTVANVTGEGSEGLIMQWLSC | 133000
33 | DQCDITPEMRKEYNIDGADKANNPELAMDWLLVHLLFRTLQLLPNMFRAWLFN | 56200
34 | DQDAVMEDAPEANAETESQNSRRRRSRGKGRKSGASMAENVKVEQQAEAGSEN | 29300
35 | DQGLTDCGDVRHTKVVSLSYHFSPDYNDPTIIPVVTRWCTEIGKLTLTGITFV | 62400
36 | DQIYIYQTPRWLCYECLVAMFTMFTIRLVYFWSLHVLNHLLTYKTFLFFFLSC | 47400
37 | DQKLPNPDDFANFEARIKLLSYDDRLSFYQRYCLKINMQVYYYVLSYILMLTS | 53300
38 | DQKPIIDQKPLALLLEKLTVSEPPRGGTLGPAWMRERLEASGQMALWKRIVEK | 34100
39 | DQPLNEILGFLLSWLLMFDHFNEITFKLKQEYTTQLKDGDLISLLLPVLFNIL | 41100
40 | DQSEISRTTSRSDTPLRDEDGLDFWETLRSLATTNPNPPVEKSAENDGAKPQV | 41100
41 | DQTICAEVMRCCESNVVAFRRLVHMIQIQLRNIGIMADIRLVRNLVLVLHGAL | 62000
42 | DQVMKIKPVQKQTTAGQRTRFKAVVVVGDSNGHVGLGVKTAKEVATAIRAAII | 72700
43 | DRDRSRSRSRSRSKSPRRHRRSSRSPRRRGADKSPERAAPAASSKQAEARPRC | 31100
44 | DREAKEDGGDTGGGGGRDRGGEEEEDEEEEEEEEEDDGFIKKTKKDKKKKKKK | 36100
45 | DREHRSKHRRHSSDSRSRSHSHRERRKDKSKHREKEKDKDRKKRKKEKERRRD | 36500
46 | DREKRSSGHRNGRRHRGHRSGRKQRRSRSRSRGDRPDSPVRAKEGEGGAKDRK | < 6570
47 | DRFQLKKFGGYQVEFINYDYGVLQDVMLFSLQRHVNCQEVGVKMLWTIIISEW | 49000
48 | DRHLDHGQLVYLLHSIVTCPRFQPMVRAIIVSRELPFFVQTWPWPYLSLLART | 36100

Row | Sequence | transcriptional activation domain activity
49 | DRLSLRFTLAISLTDVIRAIAILIYSHFQVDDWRCSLLSFSLYWLTLLYLFLT | 25300
50 | DRMRENGLLSLSDLREYFVCWWRFEKMYRTLIIAETWMDLQAYKVKTLAWLHG | 63200
51 | DRMYNQISQVFDHLYARQDRTWGRVAEDFRSVLLIRWYFDAASLWVTLWCRYT | 48600
52 | DRNYKRVAKQVGFTIDRKRGDDLRHFPIERARLEIIWPLLYTGLACILCYGWA | 70900
53 | DRNYKRVARQIGFTIDRKHGDDLRHFPIERARLELIWPLLGFGLSCYLCYGWV | 49600
54 | DRPRDRDSSRSRRDVSSSRRDRDGEDKESAGDRRDDRKPARDDRRTREDHRRE | 28100
55 | DRPRRDRADDKEATTPRSDAGSHKSRRRSRSRDDERRHSRRHRGGDGDFYRGG | 17700
56 | DRRYRISRGGSRMNQVVENTVSRWVGMLPTWRCGLLLHAFVHLKKVYWCPFLR | 72700
57 | DRSRATEEEDGKSTKRSRARSRTFTFSKSDKGGDGSPSKKVRSTSKSRAKHDG | 31100
58 | DSAMRAIYSFRNSYIAFILFNGSIYYYVARFFGFYHKVLDSPIVGFRWVDLHL | 58300
59 | DSAPTKRGRGRPKGSKNKNKSVASPSSPTSGAGSSAPRKRGRPPKAKPAESGA | 38300
60 | DSATPHGSPRRWTPSSKLSPSVAPSSPSSSTSTSSSPKARSRSHSRTCSTEVQ | 42200
61 | DSDEEDESELETDSESETGGIPIHESLSGAKSEDADKNERTIFIGNITVTAVQ | 46400
62 | DSDGDEEPGKKRQKTALSCGECKRRKIKCDRKVPCVSCIKRGEPEKCNWEEAR | 30900
63 | DSDSEEEEEGWQLSPHDVDKVRQMLEPDEVSLQRALQTTPAMRIGMIIWLVIT | 53000
64 | DSDTRRRGGEGGHRMRSSIACTRCRRSKIKCENQGVGSQCKACHGQGRECTYP | 31300
65 | DSEADSEDDDNGAESDKKMPVADKSEHQTGILSKLYKLNVYGEGSFFKPHKDT | 45700
66 | DSEEERMRRRRAKSRDPERERERKASRSPEKKPARSKSRLGRLAAGAAAAGAA | 50300
67 | DSFDAPIQTLGDDQRACLKPGLWFAYKVRFCVTLKQYKVLWMCLVLLRHLRIK | 48000
68 | DSGGDRSTSPDSDRDKENKKASDKTEDSDKETQENGEEEKGGEKERESKKGEK | 16700
69 | DSGKQGFLFLVCLVFFVFFWGFACDLWLGLLLLFFFFPFLSFPLFSLPHYHGH | 43900
70 | DSHHHDELGSEITLADNKFSYLPPTLEELMEEQDCNNGRSFKNFMFSNDTGID | 54500
71 | DSHYILQGVDAAIQILKLCRVCLHPRAVLSYLPHSFYLYLCYAAVFLLKVVFV | 61700
